Test results taken from article PMC4558169, “Anchoring of both PKA-RIIα and 14-3-3θ regulates retinoic acid induced 16 mediated phosphorylation of heat shock protein 70” (Oncotarget, 2015).
Blank lines part the entries; values can stand above or below the molecule they belong to.

Assays:
14-3-3θ = 14-3-3θ (UniProt P27348); assay: anti-Flag co-IP, 14-3-3θ blot; settings: reference: wild type; sites S325
[1] = target: T1, Flag-tagged retinoic acid induced 16 (RAI16), full length (UniProt Q86V87 1-743); assay: co-IP; Flag-tagged RAI16 or its mutants expressed in HEK293T cells, alone or with Ha-tagged PKA-RIIα; anti-Flag immunoprecipitation, endogenous 14-3-3θ detected with anti-14-3-3θ antibody; cells untreated, treated with forskolin or with forskolin + PKImyr; settings: partners not purified
T1 construct: 743 residues by the printed fragment limits; also called Flag-RAI16; Fam160B2; source: HEK293T, transfected (pcDNA3.1), in lysate
T1 sequence (Q86V87 whole entry, the tested form may be a part): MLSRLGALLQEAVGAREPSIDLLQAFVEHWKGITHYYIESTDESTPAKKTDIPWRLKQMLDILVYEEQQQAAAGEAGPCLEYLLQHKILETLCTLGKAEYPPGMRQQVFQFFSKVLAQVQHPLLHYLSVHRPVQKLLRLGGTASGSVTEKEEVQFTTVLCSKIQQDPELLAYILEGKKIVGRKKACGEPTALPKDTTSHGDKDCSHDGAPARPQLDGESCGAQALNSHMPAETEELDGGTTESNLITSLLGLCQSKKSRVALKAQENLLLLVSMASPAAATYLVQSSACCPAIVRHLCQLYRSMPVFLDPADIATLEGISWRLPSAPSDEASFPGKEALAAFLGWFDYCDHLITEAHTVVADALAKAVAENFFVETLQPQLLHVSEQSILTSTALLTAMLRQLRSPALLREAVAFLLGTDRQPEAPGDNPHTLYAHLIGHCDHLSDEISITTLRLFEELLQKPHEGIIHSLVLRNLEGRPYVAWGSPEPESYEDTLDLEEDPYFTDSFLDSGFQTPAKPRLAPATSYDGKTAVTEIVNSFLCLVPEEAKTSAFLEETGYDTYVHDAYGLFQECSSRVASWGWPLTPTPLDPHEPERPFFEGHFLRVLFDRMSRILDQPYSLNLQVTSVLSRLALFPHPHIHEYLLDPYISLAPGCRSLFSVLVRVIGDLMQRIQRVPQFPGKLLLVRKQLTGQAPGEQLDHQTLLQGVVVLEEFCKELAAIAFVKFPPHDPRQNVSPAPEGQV

binding against the reference (14-3-3θ): lost
Molecule: RAI16 (retinoic acid induced 16) (from UniProt Q86V87) S325A

fold change of co-precipitated 14-3-3θ with forskolin against untreated cells [1]: 3.25 fold
B1: endogenous 14-3-3θ (natural protein, human (endogenous in HEK293T), UniProt P27348 1-245, looked up)
chain: MEKTELIQKAKLAEQAERYDDMATCMKAVTEQGAELSNEERNLLSVAYKNVVGGRRSAWRVISSIEQKTDTSDKKLQLIKDYREKVESELRSICTTVLELLDKYLIANATNPESKVFYLKMKGDYFRYLAEVACGDDRKQTIDNSQGAYQEAFDISKKEMQPTHPIRLGLALNFSVFYYEILNNPELACTLAKTAFDEAIAELDTLNEDSYKDSTLIMQLLRDNLTLWTSDSAGEECDAAEGAEN
notes: 14-3-3 protein theta, endogenous in HEK293T cells; source: endogenous, HEK293T lysate
